Test results as given in paper PMC10671530, “Linking New Alleles at the Oscillator Loci to Flowering and Expansion of Asian Rice”.

B1: OsPRR1-p3 (EE probe) (dsDNA)
DNA 1: CATCTGGCTTAACCACGCCCGGCTCTC
DNA 2: GAGAGCCGGGCGTGGTTAAGCCAGATG
B2: OsPRR1-p2 (EE probe) (dsDNA)
DNA 1: GTTTCGTTTATTACACCGCCCCGG
DNA 2: CCGGGGCGGTGTAATAAACGAAAC
B3: probe 9 (OsPRR1_a, 12-nt deletion) (dsDNA)
DNA 1: CCAACGCCGCCGCCGC
DNA 2: GCGGCGGCGGCGTTGG
B4: OsPRR1-p1 (EE probe) (dsDNA)
DNA 1: GTAGGGGGAGGAAAATATCCTGTGCCAGTAG
DNA 2: CTACTGGCACAGGATATTTTCCTCCCCCTAC

Target: OsCCA1 DNA-binding (R/MYB) domain (Oryza sativa (cDNA of Heidao), UniProt A0A0P0XBU0 1-138)
Sequence (A0A0P0XBU0 1-138): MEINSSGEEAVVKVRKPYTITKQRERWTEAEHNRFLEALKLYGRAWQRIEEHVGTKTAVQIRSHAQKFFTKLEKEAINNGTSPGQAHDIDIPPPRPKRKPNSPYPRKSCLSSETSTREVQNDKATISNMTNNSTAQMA
Test: EMSA; EMSA: 10 uL with 2 uL 5x binding buffer (Invitrogen), 1.3 ug protein, 20 pmol probe, 23 C, 20 min; 10% native PAGE, 100 V about 70 min; gel stained for DNA and
Details: protein: recombinant; (pCold vector, Ni Sepharose)

| Binder | binding result |
| --- | --- |
| B1 | binds |
| B2 | binds |
| B3 | no binding |
| B4 | binds |
